Changes are numbered by the printed parent chain. “And” between values parts separate entries of the source, which are not always exact repeats. Identical values can stand only once. “Also recorded” adds a separate entry of the source.
B1: SB2: mouse anti-human SAS1B monoclonal antibody, IgG2b; VH SEQ ID NO:14, VL SEQ ID NO:15 (antibody, listed as Mus musculus, V domains shown)
VH: EVQLQQSGPELVKPGSSVKISCKASGYTFTDYNMVWVKQSHGKSLEWIGAVNPNNGGTSYNQKFKGKATLTVDKSSSTAYMELRSLTSEDSAVYYCVPNWDWFAYWGQGTLVTVSA
VL: DVLMTQTPLSLPVSLGDQASISCRSSQSLVHSNGNTYLEWYLQKPGQSPNLLIYKVSNRFSGVPDRFSGSGSGTDFTLKISRVEAEDLGVYYCFQGSHVPFTFGSGTKLEIK
B2: SB3: mouse anti-human SAS1B monoclonal antibody, IgG2b; VH SEQ ID NO:14, VL SEQ ID NO:15 (antibody, listed as Mus musculus, V domains shown)
VH: B1 VH
VL: B1 VL
B3: SB4: mouse anti-human SAS1B monoclonal antibody, IgG2a; VH SEQ ID NO:16, VL SEQ ID NO:17 (antibody, listed as Mus musculus, V domains shown)
VH: B1 VH with A24P, V37M, V51I, S59T, V97A
VL: B1 VL with L29I, V30L, N50K
B4: SB5: mouse anti-human SAS1B monoclonal antibody, IgG2b; VH SEQ ID NO:16, VL SEQ ID NO:18 (antibody, listed as Mus musculus, V domains shown)
VH: B1 VH with A24P, V37M, V51I, S59T, V97A
VL: B1 VL with T7I, L29I, V30L, N50K
B5: SB1: mouse anti-SAS1B monoclonal antibody, IgG2a; VH SEQ ID NO:12, VL SEQ ID NO:13 (antibody, listed as Mus musculus, V domains shown)
VH: EVQLQQSGPELVKPGSSVKISCKASGYTFTDYNMDWVKQSHGKSLEWIGAINPNNGGTSYNQKFKGKATLTVDKSSSTAYMELRSLTSEDSAVYYCATNEYWGQGTTLTVSS
VL: NIVMTQSPKSMSMSVGERVTLSCKASENVGTYVSWYQQKPEQSPKLLIYGASNRYTGVPDRFTGSGSATDFTLTISSVQAEDLADYHCGQSYSYPWTFGGGTKLEIK

Molecular target: T1, human SAS1B (Homo sapiens, UniProt Q6HA08)
T1 construct: made in house; host or cells: E. coli
T1 sequence (Q6HA08 24-431): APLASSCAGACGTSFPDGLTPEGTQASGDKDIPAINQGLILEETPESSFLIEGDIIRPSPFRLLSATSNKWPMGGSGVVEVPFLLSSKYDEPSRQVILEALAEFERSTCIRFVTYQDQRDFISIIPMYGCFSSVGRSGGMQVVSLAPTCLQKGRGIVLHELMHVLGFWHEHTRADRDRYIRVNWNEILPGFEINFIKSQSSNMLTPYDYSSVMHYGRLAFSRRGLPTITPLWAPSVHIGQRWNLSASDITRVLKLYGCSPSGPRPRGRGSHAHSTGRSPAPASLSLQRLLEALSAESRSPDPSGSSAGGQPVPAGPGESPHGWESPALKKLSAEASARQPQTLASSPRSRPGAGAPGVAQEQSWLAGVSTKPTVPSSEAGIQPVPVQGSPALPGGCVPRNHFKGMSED
Experiment: Western blot of human SAS1B probed with anti-human SAS1B murine mAbs
Format: binding
Conditions: not given
Description: A western blot of human SAS1B and mouse SAS1B was probed with anti-human SAS1B murine monoclonal antibodies SB1, SB2, SB3, SB4, SB5, SB6, and SB7.

| Molecule | Reactivity on western blot of human SAS1B and mouse SAS1B | Specificity in western blot for human SAS1B antigen in an E. coli protein background |
| --- | --- | --- |
| B1 | specific to the human SAS1B only | demonstrated specificity |
| B2 | specific to the human SAS1B only | demonstrated specificity |
| B3 | specific to the human SAS1B only | demonstrated specificity |
| B4 | specific to the human SAS1B only | demonstrated specificity |
| B5 | reacts with both human and mouse SAS1B | demonstrated specificity |

Same assay, conditions: Table 1

| Molecule | Specifically binds human SAS1B (and not mouse SAS1B) |
| --- | --- |
| B1 | Yes |
| B2 | Yes |
| B3 | Yes |
| B4 | Yes |

System: MMMT539 (uterine cancer cell line)
Experiment: Live cell surface indirect immunofluorescence, MMMT539
Format: cell-based, human
Conditions: live cells on ice
Protocol: Anti-Human SAS1B mouse monoclonal antibodies reactive to SAS1B epitope on live cancer cell surfaces were identified by indirect immuno-fluorescence (IF) for the development of therapeutic antibodies. M1 (renal cancer cell line) and MMMT539 (uterine cancer cell line) cells were seeded at 20,000 cells in 1 ml per well on collagen coated coverslips in 24 well plates. The media was replaced 22 h post seeding. For antibody probing, cells were kept on ice for ˜8 to 18 min following 47 h post-seeding. The first antibody was added at 10 ug/ml, 20 ug/ml or 50 ug/ml in complete culture media with 15 mM NaN3 (pre-chilled), incubated on ice for 60 min, and the cells washed in complete culture media with 15 mM NaN3 in cold 1 ml, ×3. The second antibody, goat-antimouse-AF488 (pre-chilled), was added to the wells at 5 ug/ml in complete culture media with 15 mM NaN3 for 60 min on ice. The cells were washed in complete media with 15 mM NaN3, 1 ml, ×3 on ice. The cells were fixed in 4% PFA in PBS for 20 minutes on ice. The cells were washed in distilled water at RT, 1 ml, ×1 and mounted in 8 ul of SLOWFADE® Diamond Antifade Mountant with DAPI. An anti-EGFR monoclonal antibody was used as a positive control on live M1 cells. Epidermal growth factor receptor (EGFR) is a transmembrane glycoprotein and member of protein kinase superfamily. […] Most of the cells expressed the receptor and validated the live cell surface IF staining methodology for the screening of anti-human SAS1B mouse monoclonal antibodies. The receptor molecule was found on the cell surfaces. Anti-human CABYR monoclonal antibody 3A4 was used as a negative control on live MMMT539 cells. CABYR is a calcium binding cytoskeleton sperm protein with no transmembrane domain.

| Molecule | Fluorescence signal on the surface of live uterine tumor cells |
| --- | --- |
| B1 | clear fluorescence signal |
| B2 | clear fluorescence signal |
| B3 | clear fluorescence signal |
| B4 | clear fluorescence signal |
| B5 | clear fluorescence signal |

System: M1 (renal cancer cell line)
Experiment: Live cell surface indirect immunofluorescence, M1
Format: cell-based
Conditions: live cells on ice; two cancer cell lines (M1, MMMT539)
Protocol: Anti-Human SAS1B mouse monoclonal antibodies reactive to SAS1B epitope on live cancer cell surfaces were identified by indirect immuno-fluorescence (IF) for the development of therapeutic antibodies. M1 (renal cancer cell line) and MMMT539 (uterine cancer cell line) cells were seeded at 20,000 cells in 1 ml per well on collagen coated coverslips in 24 well plates. The media was replaced 22 h post seeding. For antibody probing, cells were kept on ice for ˜8 to 18 min following 47 h post-seeding. The first antibody was added at 10 ug/ml, 20 ug/ml or 50 ug/ml in complete culture media with 15 mM NaN3 (pre-chilled), incubated on ice for 60 min, and the cells washed in complete culture media with 15 mM NaN3 in cold 1 ml, ×3. The second antibody, goat-antimouse-AF488 (pre-chilled), was added to the wells at 5 ug/ml in complete culture media with 15 mM NaN3 for 60 min on ice. The cells were washed in complete media with 15 mM NaN3, 1 ml, ×3 on ice. The cells were fixed in 4% PFA in PBS for 20 minutes on ice. The cells were washed in distilled water at RT, 1 ml, ×1 and mounted in 8 ul of SLOWFADE® Diamond Antifade Mountant with DAPI. An anti-EGFR monoclonal antibody was used as a positive control on live M1 cells. Epidermal growth factor receptor (EGFR) is a transmembrane glycoprotein and member of protein kinase superfamily. […] Anti-human CABYR monoclonal antibody 3A4 was used as a negative control on live MMMT539 cells. CABYR is a calcium binding cytoskeleton sperm protein with no transmembrane domain.

| Molecule | Surface labelling of live cancer cells |
| --- | --- |
| B1 | labelled the surface |
| B2 | labelled the surface |
| B3 | labelled the surface |
| B4 | labelled the surface |
| B5 | labelled the surface |

System: human uterine cancer cells
Experiment: ADC assay on human uterine cancer cells using Fab-anti-mouse IgG Fc (Duocarmycin DM conjugated or unconjugated)
Format: cell-based
Conditions: 0.01 nM mAb, Fab-anti-mouse IgG Fc conjugated to Duocarmycin DM with cleavable linker, 4 days
Protocol: The cytotoxic effect of anti-human SAS1B monoclonal antibodies SB1, SB3 and SB4 on human uterine cancer cells was investigated by ADC assay using Fab-anti-mouse IgG Fc conjugated to Duocarmycin DM with a cleavable linker. An average of 3 experiments were done in triplicate. […] At 0.01 nM the viability was only 40% compared to ˜80% viability for SB4 mAb.
The cytotoxic effect of anti-human SAS1B mAbs SB1, SB2, SB3, SB4 and SB5 on human uterine cancer cells by ADC assay using unconjugated Fab-anti-mouse IgG Fc was examined. An average of 1 or 2 experiments in triplicate were performed. […] See FIGS. 10A-B. The cytotoxic effect of anti-human SAS1B mAbs SB1, SB2, SB3, SB4, and SB5 was tested on human uterine cancer cells by ADC assay using Fab-anti-mouse IgG Fc conjugated to Duocarmycin DM with cleavable linker. An average of 3 experiments were completed in triplicate. […] At 0.01 nM the viability for SB3, SB2, SB4 and SB5 were 42%, 66%, 80% and 87% respectively.

| Molecule | Viability |
| --- | --- |
| B2 | 40% and 42% |
| B3 | ~80% |

Same assay, conditions: Fab-anti-mouse IgG Fc conjugated to Duocarmycin DM with cleavable linker, 4 days

| Molecule | Cytotoxic effect |
| --- | --- |
| B1 | strong cytotoxic effect at 0.1 nM and higher concentrations |
| B2 | strongest cytotoxic effect; also recorded: strong cytotoxic effect at 0.1 nM and higher concentrations |
| B3 | cytotoxic effect at 0.01, 0.1 nM and higher concentrations; also recorded: strong cytotoxic effect at 0.1 nM and higher concentrations |
| B4 | strong cytotoxic effect at 0.1 nM and higher concentrations |
| B5 | no cytotoxic effect |

Same assay, conditions: isotype-specific unconjugated Fab, 4 days

| Molecule | Cytotoxic effect |
| --- | --- |
| B1 | no cytotoxic effect |
| B2 | no cytotoxic effect |
| B3 | no cytotoxic effect |
| B4 | no cytotoxic effect |
| B5 | no cytotoxic effect |

Same assay, conditions: uterine tumor cells in vitro

| Molecule | Cell killing effects as antibody-duocarmycin conjugates on SAS1B+ human tumor cells (FIG. 28) |
| --- | --- |
| B1 | sub-nanomolar concentrations |
| B2 | sub-nanomolar concentrations |
| B3 | sub-nanomolar concentrations |
| B4 | sub-nanomolar concentrations |
| B5 | no cytotoxic effects |
